Measurements: publication PMC3202535, “A Novel Metagenomic Short-Chain Dehydrogenase/Reductase Attenuates Pseudomonas aeruginosa Biofilm Formation and Virulence on Caenorhabditis elegans” (PLoS ONE, 2011)

Experiments:
BpiB09 [1] = biological target: T1, BpiB09 (uncultured bacterium Bio5, UniProt B2BKB1); assay: X-ray crystal structure, […] A; type: binding; conditions: 1 mM NADP+ added before crystallisation; 0.1 M citric acid pH 4.5, 1.5 M LiSO4; 292 K; nucleotide site; modelled as partial NADP+, nicotinamide half poorly defined
T1 construct: about 720 bp gene; His-tag purified from E. coli BL21 DE3 (pET-19b; also cloned in pET-21a); homotetramer

BpiB09 [2] = biological target: T1, BpiB09; assay: HPLC-MS of reduction to 3-hydroxy-C12-HSL; type: biochemical; conditions: 1 mM NADPH, 100 mM potassium phosphate pH 7.0, 20% DMSO, 30 C, 16 h; 4 mM substrate (5 mM in Results)
[3] = biological target: BpiB09 (soil metagenome (not yet cultivated microbe)); assay: SEC; gel permeation chromatography during purification (data not shown)
[4] = biological target: BpiB09 (soil metagenome (not yet cultivated microbe)); assay: crystal structure; BpiB09 with NADP+; crystals from 0.1 M citric acid pH 4.5 and 1.5 M LiSO4 at 292 K; space group I422, four copies per asymmetric unit, tetramer completed by a crystallographic dyad; 2.4 Å
[5] = biological target: BpiB09 (soil metagenome (not yet cultivated microbe)); assay: AUC; analytical ultracentrifugation of recombinant BpiB09 and its mutants; conditions not given

T1 sequence (B2BKB1 entry or part of it): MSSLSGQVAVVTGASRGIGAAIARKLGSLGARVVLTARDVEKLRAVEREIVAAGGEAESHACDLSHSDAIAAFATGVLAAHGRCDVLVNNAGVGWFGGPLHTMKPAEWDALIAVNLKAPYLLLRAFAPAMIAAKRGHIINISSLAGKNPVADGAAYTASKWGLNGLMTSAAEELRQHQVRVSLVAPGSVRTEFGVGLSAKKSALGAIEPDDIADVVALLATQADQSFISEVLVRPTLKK

Compound: NC(=O)c1ccc[n+]([C@@H]2O[C@H](COP(=O)(O)OP(=O)(O)OC[C@H]3O[C@@H](n4cnc5c(N)ncnc54)[C@H](OP(=O)(O)O)[C@@H]3O)[C@@H](O)[C@H]2O)c1 [NADP+]
- X-ray crystal structure, 2.4 A (BpiB09 [1]): adding NADP+ prior to crystallization resulted in a higher occupancy of the bound NADP+

Compound: CCCCCCCCCC(=O)CC(=O)N[C@H]1CCOC1=O [3-oxo-C12-HSL, N-(3-oxo-dodecanoyl)-L-homoserine lactone]
- HPLC-MS of reduction to 3-hydroxy-C12-HSL (BpiB09 [2]): analyses of purified enzyme resulted in a turnover of 3-oxo-C12-HSL to 3-hydroxy-C12-HSL

Compound: BpiB09 (enzyme)
- stoichiometry N [3]: 4
- stoichiometry N [4]: 4
- stoichiometry N [5]: 4
